Values of other authors as cited in paper PMC4454200.

Molecular target: Myosin-5a GTD (Mus musculus) (UniProt Q99104)
Sequence (Q99104 1469-1853): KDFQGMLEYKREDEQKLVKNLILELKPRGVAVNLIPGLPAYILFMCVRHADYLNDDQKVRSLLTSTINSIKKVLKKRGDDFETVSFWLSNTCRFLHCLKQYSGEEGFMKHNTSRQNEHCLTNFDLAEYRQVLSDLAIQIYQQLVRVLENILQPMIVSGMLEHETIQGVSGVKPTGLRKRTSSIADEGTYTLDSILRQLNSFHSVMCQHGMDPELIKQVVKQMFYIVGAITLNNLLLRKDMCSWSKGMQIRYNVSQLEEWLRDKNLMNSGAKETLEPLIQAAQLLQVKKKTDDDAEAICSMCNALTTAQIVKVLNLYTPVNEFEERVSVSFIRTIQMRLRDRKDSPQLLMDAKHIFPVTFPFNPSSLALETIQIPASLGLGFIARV

Chain of Melanophilin GTBDP (Q91V27 176-201): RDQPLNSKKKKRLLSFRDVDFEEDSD

Question: Which Kd does the source give for “Melanophilin GTBDP (from UniProt Q91V27)” here?
Answer: Its Kd is 500 nM.
